According to patent US20140363428A1 (Chugai, published 2014):
Numbering of substitutions follows the chain as printed.

B1: IgG1-F1191 (antibody)
heavy: QVQLQESGPGLVKPSETLSLTCAVSGHSISHDHAWSWVRQPPGEGLEWIGFISYSGITNYNPSLQGRVTISRDNSKNTLYLQMNSLRAEDTAVYYCARSLARTTAMDYWGEGTLVTVSSASTKGPSVFPLAPSSKSTSGGTAALGCLVKDYFPEPVTVSWNSGALTSGVHTFPAVLQSSGLYSLSSVVTVPSSSLGTQTYICNVNHKPSNTKVDKKVEPKSCDKTHTCPPCPAPELLGGPSVFLFPPKPKDTLYISRTPEVTCVVVDVSHEDPEVKFNWYVDGVEVHNAKTKPREEQYNSTYRVVSVLTVLHQDWLNGKEYKCKVSNKALPAPIEKTISKAKGQPREPQVYTLPPSRDELTKNQVSLTCLVKGFYPSDIAVEWESNGQPENNYKTTPPVLDSDGSFFLYSKLTVDKSRWQQGNVFSCSVMHEALHYHVARKELSLSP
light: not shown
notes: EU numbering; copies: 2 + 2
B2: IgG1-F1249 (antibody)
heavy: B1 heavy with L237R, S241K, T258Q, A439T
light: not shown
notes: EU numbering; copies: 2 + 2
B3: IgG1-F1256 (antibody)
heavy: B1 heavy with L237R, S241K, Q313H, A439T
light: not shown
notes: EU numbering; copies: 2 + 2
B4: IgG1-F1277 (antibody)
heavy: B1 heavy with L237R, S241K, T258A, H435D, A439T
light: not shown
notes: EU numbering; copies: 2 + 2
B5: IgG1-F1266 (antibody)
heavy: B1 heavy with L237R, S241K, T258N, A439T
light: not shown
notes: EU numbering; copies: 2 + 2
B6: IgG1-F1261 (antibody)
heavy: B1 heavy with L237R, S241K, A439T, E442D
light: not shown
notes: EU numbering; copies: 2 + 2
B7: IgG1-F1275 (antibody)
heavy: B1 heavy with L237R, S241K, T258Q, H435D, A439T, R440K, E442D
light: not shown
notes: EU numbering; copies: 2 + 2
B8: IgG1-F1195 (antibody)
heavy: B1 heavy with A439T, L443A
light: not shown
notes: EU numbering; copies: 2 + 2
B9: IgG1-F1206 (antibody)
heavy: B1 heavy with T252V, S256T, T258Q, A439T
light: not shown
notes: EU numbering; copies: 2 + 2
B10: IgG1-F1202 (antibody)
heavy: B1 heavy with T252V, S256T, T258E, A439T
light: not shown
notes: EU numbering; copies: 2 + 2
B11: IgG1-F1207 (antibody)
heavy: B1 heavy with Y254M, I334E, M430L, Y436S, V438Y, A439T, R440Q, E442S
light: not shown
notes: EU numbering; copies: 2 + 2
B12: IgG1-F1230 (antibody)
heavy: B1 heavy with A439T, E442D
light: not shown
notes: EU numbering; copies: 2 + 2
B13: IgG1-F1204 (antibody)
heavy: B1 heavy with S256T, T258Q, A439T
light: not shown
notes: EU numbering; copies: 2 + 2
B14: IgG1-F1216 (antibody)
heavy: B1 heavy with L253S, A439T, R440Q, E442S
light: not shown
notes: EU numbering; copies: 2 + 2
B15: IgG1-F1280 (antibody)
heavy: B1 heavy with L237R, S241K, T258G, H435D, A439T
light: not shown
notes: EU numbering; copies: 2 + 2
B16: IgG1-F1250 (antibody)
heavy: B1 heavy with L237R, S241K, S256T, T258Q, A439T
light: not shown
notes: EU numbering; copies: 2 + 2
B17: IgG1-F1243 (antibody)
heavy: B1 heavy with L237R, S241K, S256T, A439T
light: not shown
notes: EU numbering; copies: 2 + 2
B18: IgG1-F1211 (antibody)
heavy: B1 heavy with L253H, A439T, R440Q, E442S
light: not shown
notes: EU numbering; copies: 2 + 2
B19: IgG1-F1192 (antibody)
heavy: B1 heavy with A439G
light: not shown
notes: EU numbering; copies: 2 + 2
B20: IgG1-F1260 (antibody)
heavy: B1 heavy with L237R, S241K, T309Q, Q313H, A439T
light: not shown
notes: EU numbering; copies: 2 + 2
B21: IgG1-F1231 (antibody)
heavy: B1 heavy with A439T, R440K
light: not shown
notes: EU numbering; copies: 2 + 2
B22: IgG1-F1258 (antibody)
heavy: B1 heavy with L237R, S241K, T309A, Q313H, A439T
light: not shown
notes: EU numbering; copies: 2 + 2
B23: IgG1-F1194 (antibody)
heavy: B1 heavy with A439T, K441D
light: not shown
notes: EU numbering; copies: 2 + 2
B24: IgG1-F1247 (antibody)
heavy: B1 heavy with L237R, S241K, T252V, T258E, A439T
light: not shown
notes: EU numbering; copies: 2 + 2
B25: IgG1-F1244 (antibody)
heavy: B1 heavy with L237R, S241K, T258E, A439T
light: not shown
notes: EU numbering; copies: 2 + 2
B26: IgG1-F1253 (antibody)
heavy: B1 heavy with L237R, S241K, T309A, A439T
light: not shown
notes: EU numbering; copies: 2 + 2
B27: IgG1-F1203 (antibody)
heavy: B1 heavy with T258Q, A439T
light: not shown
notes: EU numbering; copies: 2 + 2
B28: IgG1-F1272 (antibody)
heavy: B1 heavy with L237R, S241K, S256A, H435D, A439T, R440K, E442D
light: not shown
notes: EU numbering; copies: 2 + 2
B29: IgG1-F1208 (antibody)
heavy: B1 heavy with L253A, A439T, R440Q, E442S
light: not shown
notes: EU numbering; copies: 2 + 2
B30: IgG1-F1263 (antibody)
heavy: B1 heavy with L237R, S241K, A439T, R440K, E442D
light: not shown
notes: EU numbering; copies: 2 + 2
B31: IgG1-F1252 (antibody)
heavy: B1 heavy with L237R, S241K, T252V, S256T, T258Q, A439T
light: not shown
notes: EU numbering; copies: 2 + 2
B32: IgG1-F1201 (antibody)
heavy: B1 heavy with T252V, T258E, A439T
light: not shown
notes: EU numbering; copies: 2 + 2
B33: IgG1-F1271 (antibody)
heavy: B1 heavy with L237R, S241K, S256A, H435D, A439T
light: not shown
notes: EU numbering; copies: 2 + 2
B34: IgG1-F1273 (antibody)
heavy: B1 heavy with L237R, S241K, T258Q, A439T, R440K, E442D
light: not shown
notes: EU numbering; copies: 2 + 2
B35: IgG1-F1197 (antibody)
heavy: B1 heavy with S256T, A439T
light: not shown
notes: EU numbering; copies: 2 + 2
B36: IgG1-F1270 (antibody)
heavy: B1 heavy with L237R, S241K, S256A, A439T, R440K, E442D
light: not shown
notes: EU numbering; copies: 2 + 2
B37: IgG1-F1279 (antibody)
heavy: B1 heavy with L237R, S241K, T258G, A439T, R440K, E442D
light: not shown
notes: EU numbering; copies: 2 + 2
B38: IgG1-F1217 (antibody)
heavy: B1 heavy with L253T, A439T, R440Q, E442S
light: not shown
notes: EU numbering; copies: 2 + 2
B39: IgG1-F1205 (antibody)
heavy: B1 heavy with T252V, T258Q, A439T
light: not shown
notes: EU numbering; copies: 2 + 2
B40: IgG1-F1251 (antibody)
heavy: B1 heavy with L237R, S241K, T252V, T258Q, A439T
light: not shown
notes: EU numbering; copies: 2 + 2
B41: IgG1-F1196 (antibody)
heavy: B1 heavy with A439T, L443E
light: not shown
notes: EU numbering; copies: 2 + 2
B42: IgG1-F1198 (antibody)
heavy: B1 heavy with T258E, A439T
light: not shown
notes: EU numbering; copies: 2 + 2
B43: IgG1-F1269 (antibody)
heavy: B1 heavy with L237R, S241K, H435D, A439T, R440K, E442D
light: not shown
notes: EU numbering; copies: 2 + 2
B44: IgG1-F1199 (antibody)
heavy: B1 heavy with S256T, T258E, A439T
light: not shown
notes: EU numbering; copies: 2 + 2
B45: IgG1-F1265 (antibody)
heavy: B1 heavy with L237R, S241K, T258G, A439T
light: not shown
notes: EU numbering; copies: 2 + 2
B46: IgG1-F1283 (antibody)
heavy: B1 heavy with L237R, S241K, T258N, H435D, A439T
light: not shown
notes: EU numbering; copies: 2 + 2
B47: IgG1-F1274 (antibody)
heavy: B1 heavy with L237R, S241K, T258Q, H435D, A439T
light: not shown
notes: EU numbering; copies: 2 + 2
B48: IgG1-F1255 (antibody)
heavy: B1 heavy with L237R, S241K, Q313A, A439T
light: not shown
notes: EU numbering; copies: 2 + 2
B49: IgG1-F1282 (antibody)
heavy: B1 heavy with L237R, S241K, T258N, A439T, R440K, E442D
light: not shown
notes: EU numbering; copies: 2 + 2
B50: IgG1-F1232 (antibody)
heavy: B1 heavy with A439T, R440K, E442D
light: not shown
notes: EU numbering; copies: 2 + 2
B51: IgG1-F1259 (antibody)
heavy: B1 heavy with L237R, S241K, T309Q, Q313A, A439T
light: not shown
notes: EU numbering; copies: 2 + 2
B52: IgG1-F1257 (antibody)
heavy: B1 heavy with L237R, S241K, T309A, Q313A, A439T
light: not shown
notes: EU numbering; copies: 2 + 2
B53: IgG1-F1246 (antibody)
heavy: B1 heavy with L237R, S241K, T252V, S256T, A439T
light: not shown
notes: EU numbering; copies: 2 + 2
B54: IgG1-F1276 (antibody)
heavy: B1 heavy with L237R, S241K, T258A, A439T, R440K, E442D
light: not shown
notes: EU numbering; copies: 2 + 2
B55: IgG1-F1254 (antibody)
heavy: B1 heavy with L237R, S241K, T309Q, A439T
light: not shown
notes: EU numbering; copies: 2 + 2
B56: IgG1-F1200 (antibody)
heavy: B1 heavy with T252V, S256T, A439T
light: not shown
notes: EU numbering; copies: 2 + 2
B57: IgG1-F1281 (antibody)
heavy: B1 heavy with L237R, S241K, T258G, H435D, A439T, R440K, E442D
light: not shown
notes: EU numbering; copies: 2 + 2
B58: IgG1-F1264 (antibody)
heavy: B1 heavy with L237R, S241K, T258A, A439T
light: not shown
notes: EU numbering; copies: 2 + 2
B59: IgG1-F1218 (antibody)
heavy: B1 heavy with L253V, A439T, R440Q, E442S
light: not shown
notes: EU numbering; copies: 2 + 2
B60: IgG1-F1229 (antibody)
heavy: B1 heavy with I255V, A439T, R440Q, E442S
light: not shown
notes: EU numbering; copies: 2 + 2

These binders were tested against T1, soluble human FcRn (human, UniProt P55899 24-297; P61769 21-119) (assay: SPR (Biacore T100), antibody captured by protein L, hFcRn as analyte, pH 7.0, 25 C;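 further: KD calculated from fitted association and dissociation rate constants of the sensorgrams, protein L amine-coupled to the sensor chip, sodium phosphate running buffer with NaCl and Tween20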).
T1 construct: Heterodimer of FcRn alpha chain and beta2-microglobulin; also called hFcRn
Procedure: An appropriate amount of protein L (ACTIGEN) was immobilized onto Sensor chip CM4 (GE Healthcare) by the amino coupling method, and the chip was allowed to capture an antibody of interest. Then, diluted FcRn solutions and running buffer (as a reference solution) were injected to allow human FcRn to interact with the antibody captured on the sensor chip. The running buffer used comprised 50 mmol/l sodium phosphate, 150 mmol/l NaCl, and 0.05% (w/v) Tween20 (pH 7.0). FcRn was diluted using each buffer. The chip was regenerated using 10 mmol/l glycine-HCl (pH 1.5). Assays were carried out exclusively at 25 degrees C. The association rate constant ka (1/Ms) and dissociation rate constant kd (1/s), both of which are kinetic parameters, were calculated based on the sensorgrams obtained in the assays, and KD (M) of each antibody for human FcRn was determined from these values. Each parameter was calculated using Biacore T100 Evaluation Software (GE Healthcare).

| Kd | Binder |
| --- | --- |
| 210 nM | B1 |
| 210 nM | B2 |
| 160 nM | B3 |
| 170 nM | B4 |
| 100 nM | B5 |
| 140 nM | B6 |
| 210 nM | B7 |
| 180 nM | B8 |
| 170 nM | B9 |
| 88 nM | B10 |
| 1100 nM | B11 |
| 110 nM | B12 |
| 120 nM | B13 |
| 1200 nM | B14 |
| 210 nM | B15 |
| 170 nM | B16 |
| 130 nM | B17 |
| 1200 nM | B18 |
| 130 nM | B19 |
| 65 nM | B20 |

| Kd | Binder |
| --- | --- |
| 97 nM | B21 |
| 110 nM | B22 |
| 160 nM | B23 |
| 150 nM | B24 |
| 100 nM | B25 |
| 110 nM | B26 |
| 150 nM | B27 |
| 170 nM | B28 |
| 570 nM | B29 |
| 120 nM | B30 |
| 230 nM | B31 |
| 110 nM | B32 |
| 200 nM | B33 |
| 150 nM | B34 |
| 95 nM | B35 |
| 120 nM | B36 |
| 120 nM | B37 |
| 1100 nM | B38 |
| 200 nM | B39 |
| 280 nM | B40 |

| Kd | Binder |
| --- | --- |
| 150 nM | B41 |
| 78 nM | B42 |
| 170 nM | B43 |
| 62 nM | B44 |
| 160 nM | B45 |
| 130 nM | B46 |
| 250 nM | B47 |
| 110 nM | B48 |
| 77 nM | B49 |
| 98 nM | B50 |
| 45 nM | B51 |
| 78 nM | B52 |
| 170 nM | B53 |
| 100 nM | B54 |
| 64 nM | B55 |
| 130 nM | B56 |
| 170 nM | B57 |
| 130 nM | B58 |
| 250 nM | B59 |
| 2800 nM | B60 |
